Experimental data reported in patent publication US20240317865A1, “ANTIBODIES AGAINST INTEGRIN ALPHA 11 BETA 1” (MOMENTA PHARMACEUTICALS, INC., priority 2020, published 2024).

T1: α11β1 I Domain (Homo sapiens, UniProt Q9UKX5)
T1 sequence (Q9UKX5 164-345 limits assumed): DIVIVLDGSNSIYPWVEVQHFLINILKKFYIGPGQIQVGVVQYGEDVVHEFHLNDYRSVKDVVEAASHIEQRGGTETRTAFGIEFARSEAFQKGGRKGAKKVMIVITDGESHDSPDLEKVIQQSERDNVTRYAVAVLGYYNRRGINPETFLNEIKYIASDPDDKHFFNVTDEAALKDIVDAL

B1: 1994_01_C07: fully human anti-α11β1 mAb from phage display; HCDR3 SEQ ID NO: 267, LCDR3 SEQ ID NO: 271 (antibody, V domains shown)
VH: QVQLVQSGAEVKKPGASVKVSCKASGYTFTSYGISWVRQAPGQGLEWMGWISAYNGNTNYAQKLQGRVTMTTDTSTSTAYMELRSLRSDDTAAYYCARVTGITGTTIDPWGQGTMVTVSS
VL: DIQMTQSPSSLSASVGDRVTITCRASQSISSYLNWYQQKPGKAPKLLIYDASSLESGVPSRFSGSGSGTEFTLTISSLQPDDFAVYYCQQYNNWPQTFGQGTKVEIK
B2: 16E10: rabbit anti-α11β1 mAb; heavy chain SEQ ID NO: 161, light chain SEQ ID NO: 162 (antibody)
heavy: METGLRWLLLVAVLKGVQCQSLEESGGDLVKPGASLTLTCRVSGFSFSSSYYMCWVRQAPGKGLEWIACIGTTRGSTYYATWAKGRFTISKISSTTVTLQMTSLTDADTATYFCARDATGYRINTIGLYFNLWGPGTLVTVSSGQPKAPSVFPLAPCCGDTPSSTVTLGCLVKGYLPEPVTVTWNSGTLTNGVRTFPSVRQSSGLYSLSSVVSVTSSSQPVTCNVAHPATNTKVDKTVAPSTCSKPMCPPPELPGGPSVFIFPPKPKDTLMISRTPEVTCVVVDVSQDDPEVQFTWYINNEQVRTARPPLREQQFNSTIRVVSTLPIAHQDWLRGKEFKCKVHNKALPAPIEKTISKARGQPLEPKVYTMGPPREELSSRSVSLTCMINGFYPSDISVEWEKNGKAEDNYKTTPTVLDSDGSYFLYSKLSVPTSEWQRGDVFTCSVMHEALHNHYTQKSISRSPGK
light: MDTRAPTQLLGLLLLWLPGARCAFELTQTPSSVEAAVGGTPTIKCQASQTIYSYLSWYQQKPGQPPKLLIYEASKLASGVPSRFSGSGSGTDYTLTISDLECADAATYYCQSYHGTASTEYNTFGGGTEVVVRGDPVAPTVLIFPPAADQVATGTVTIVCVANKYFPDVTVTWEVDGTTQTTGIENSKTPQNSADCTYNLSSTLTLTSTQYNSHKEYTCKVTQGTTSVVQSFNRGDC
B3: 40G10H11: rat anti-α11β1 mAb; VH SEQ ID NO: 157, VL SEQ ID NO: 158 (antibody, V domains shown)
VH: MDIRLSLGFLVLFIKGDQCAVQLVESGGGLVQPGRSLKLSCAASRITFTDYYMAWVRQAPTKGLEWVATISSDGGDTFYRDSVKGRFTISRDNAKSTLYLQMVSLRSEDTATYYCSTDRGAQFGYWGQGTLVTVSS
VL: MAPVQLLGLLLIWLPAMRCDIQMTQSPSFLSASVGDRVSINCKASQNVHENLNWYQQKLGEAPKRLIYNTNNLQTGIPSRFSGSGSGADYTLTISSLQPEDFATYFCLQHNAFPYTFGPGTKLELK
B4: 79E3E3: rat anti-α11β1 mAb; VH SEQ ID NO: 145, VL SEQ ID NO: 146 (antibody, V domains shown)
VH: MDWLWNLLFLMVVAQSAQAQIQLVQSGPEVKKPGESVKISCKASGYTFTDYAMNWVKQAPGNGLKWMGWINTQTGKPTYADDFKQRFVFSLETSARTTYLQINNLNIEDTATYFCTRLGTGNTKGFAYWGQGTLVTVSS
VL: MESQTHVLISLLLCVSGTCGDILINQSPASLTVSAGERVTMSCKSSQSLLYSENNQDYLAWYQQKPGQFPKLLIYGASNRHTGVPDRFTGSGSGTDFTLTISSVQAEDLADYYCEQTYRYPFTFGSGTKLEIK

What was measured:
[1] = test system: human Precision-Cut Kidney Slices (PCKS); assay: Precision-Cut Kidney Slices (PCKS); type: cell-based; conditions: 72- and 96-hour time points at each dose tested (1, 10 and 50 μg/mL)
Method: PCKS were prepared from explanted fibrotic human kidney tissue and rested for 24 hours to allow the post-slicing stress period to elapse before experiments began. PCKS were cultured with TGF-β1 (3 ng/mL) and PDGFββ (50 ng/mL) in the presence or absence of Alk5i (10 μM, positive control), test anti-α11β1 antibodies over three doses (1, 10 and 50 μg/mL) or in the presence of IgG control antibodies at a single high dose. PCKS culture media was harvested every 24 hours for a total of 3 time points. Levels of Collagen type I α1 (col1a1) in the tissue culture supernatants were quantified using R&D Duoset ELISA kits. Statistics were performed using Two-way ANOVA followed by Dunnett's multiple comparisons test.
As described in the methods above, PCKS were prepared from explanted fibrotic human kidney tissue and rested for 24 hours to allow the post-slicing stress period to elapse before experiments began. PCKS were cultured with TGF-β1 (3 ng/ml) and PDGFββ (50 ng/mL) in the presence or absence of Alk5i (10 μM, positive control), test anti-α11β1 antibodies over three doses (1, 10 and 50 μg/mL) or in the presence of IgG control antibodies at a single high dose. PCKS culture media was harvested every 24 hours for a total of 3 time points. Levels of Collagen type I α1 (col1a1) in the tissue culture supernatants were quantified using R&D Duoset ELISA kits. […]

[2] = test system: CHO-K1 human α11-mediated rat tail type I collagen gel contraction; assay: Collagen gel contraction assay; type: cell-based; conditions: compared to untreated condition
Method: 24-well plates were blocked with 2% BSA in PBS overnight at 37° C. The following day, the plates were washed 3 times with PBS before being used in the assay. Human CHO cell lines expressing α11 were harvested and resuspended at 1.25×10^6 in ExpiCHO Expression Medium (Gibco™ Cat #A2910002). The collagen gel solution was prepared by diluting 3 mg/mL stock collagen type I (Gibco™ Collagen I Rat Protein, Tail Cat #A1048301) to 1 mg/mL in the media containing the CHO cells. Sodium hydroxide was added to the solution to neutralize the pH and 400 μL of the collagen solution was added to each well of the 24-well plates. For the wells where the antibodies were included in the collagen gel solution, CHO cells were prepared at 2.5×10^6 and the antibodies were prepared at 2× final concentration in ExpiCHO media. The cells and antibodies were then combined 1:1 before the addition of the stock collagen type 1. The gels were allowed to polymerize for 60 minutes at 37° C. Antibodies were added to the ExpiCHO media, which was then layered on top of the polymerized gel (400 μL/well). The gels were incubated for 6 days at 37° C. before gel contraction was quantified. Images of each well were analyzed using Image J and gel contraction was determined as a percentage of the initial gel area.
Selected exemplary antibodies were tested for the ability to inhibit cell-mediated 3D gel contraction because this ability is directly linked to the functionality of the exemplary antibodies.

α11β1 Headpiece = assay: SPR binding to α11β1 Headpiece; parameters: species or system human; conditions: in words
Method: (§1) The affinity of antibodies for human α11β1 was measured by surface plasmon resonance assay (SPR). Affinity was measured at pH 7.6 and 25° C. with a Biacore T200 instrument. Anti-HIS antibody was immobilized on the SPR sensor surface using EDC/NHS covalent attachment. HIS-tagged human α11β1 was captured on the sensor surface and a single-cycle kinetics assay was used. Increasing concentrations of test antibody were injected in series over the sensor-bound α11β1. Dissociation was monitored for 1000 seconds. A sensor surface with only anti-HIS antibody and a series of blank injections were used to double-reference subtract the data. A 1:1 Langmuir model was fit to the data to estimate the kinetic association and dissociation constants. The affinity (equilibrium dissociation constant) of the interaction was calculated by dividing the kinetic dissociation constant by the kinetic association constant. Between injection cycles α11β1 and bound antibody were removed with an injection of 10 mM glycine at pH 1.5.
(§2) The binding affinity of antibodies for the α11β1 Headpiece and α11β1 I Domain as measured by SPR is shown in FIG. 10A and FIG. 10B, respectively.

α11β1 I Domain [3] = target: T1, α11β1 I Domain; assay: SPR binding to α11β1 I Domain; conditions: in words
Method: as §1, §2

A549 cell xenografts = assay: Tumor xenograft model; type: in vivo, C.B-17 SCID mice; conditions: A549 xenograft, SCID mice
Method: Fifty-six female C.B-17 SCID mice were inoculated with A549 cells (5×10^6 cells/mouse) subcutaneously in the flank. Once tumor volume reached ˜100 mm^3, animals were randomized amongst 7 groups of 8 mice each. Mice were then treated intraperitonealy every 3 days for a total of 7 doses with isotype controls or novel mAbs 79E3E3, 16E10 and 9G04 (2 and 20 mg/kg) or with docetaxel at 10 mg/kg every 4 days for a total of 6 doses. Tumor volumes and body weights were recorded twice a week with a gap of 2-3 days in between two measurements until any of the following conditions defined were observed: loss of 20% or more body weight; tumors that inhibit normal physiological function such as eating, drinking, and mobility; ulcerated tumors; tumor size greater than 2000 mm^3 and clinical observations of prostration, paralysis, seizures and hemorrhages.
In this example, studies were performed to determine if inhibition of α11β1 function with mAb results in xenograft growth inhibition. As shown in FIG. 16 and Table 4, blocking α11β1 on mouse CAFs impeded xenograft growth in SCID mice.

α11β1 I Domain [4] = target: T1, α11β1 I Domain; assay: ELISA binding to in-house generated α11β1 I domain; parameters: An in-house generated I domain of α11β1 was used; made in house; conditions: in words
Method: 0.25 μg/mL of target antigen (recombinant human or mouse α11β1) was plated in a 96-well plate over night at 4° C. Plates were washed (PBS with 0.1% Tween-20), blocked (PBS with 2% BSA and 0.05% Tween-20) for 1 hour at room temperature and incubated with a range of antibody concentrations for 1 hour at room temperature. Subsequently, plates were washed and incubated with biotinylated anti-rabbit/mouse/human IgG in a 1:1000 dilution buffer and incubated for 1 hour at room temperature. After washing the plates, Streptavidin HRP was added at 1:200 in dilution buffer and incubated for 1 hour at room temperature. Ultra TMB ELISA substrate solution was added and the plates incubated for 5 minutes on a plate shaker. The reaction was stopped by adding stop solution to each well and plates were read at 450 nm.
Data was also collected to determine whether antibodies of interest bind to the I domain of α11β1. An in-house generated I domain of α11β1 was used. […] Mouse antibodies 10-F23, 10-L15, 7-O8, 6-A12, 9-G05 and 9-E16 and rabbit antibodies 7-H12 and 2-D3 were also tested for binding against the in-house generated α11β1 I domain. FIGS. 3A and 3B show graphs illustrating binding data from exemplary mAbs.

α1β1, α2β1 and/or α10β1 = assay: Counter-screen against other collagen receptors (off target); type: binding, human
Method: Wistar rats were immunized with recombinant human α11β1 protein. An enzyme-linked immunosorbent assay (ELISA) was used to test an immune response against target human and mouse proteins. Subsequently, cell fusion (by electro fusion) was performed with animals that produced a good immune response. All fused cells were plated in a 96-well plate and supernatants were screened by ELISA against soluble human and mouse α11β1. Positive clones were counter-screened against human α1β1, α2β1 and α10β1. […] Purified antibodies were then generated from the selected clones and heavy chain and light chain variable domain sequences were obtained from each purified antibody.
10 mice from 5 different strains were immunized with an appropriate mixture of human α11β1, mouse α11β1 and tolerance breaking protein. Plasma titers were evaluated by ELISA against a mixture of human and mouse α11β1. Popliteal, inguinal, and iliac lymph nodes were collected. ELISA-positive anti-human/mouse α11β1 hybridomas were expanded and subjected to a secondary screen against human and mouse α11β1, control HIS protein, and a counter-screen was performed against human […], α2β1 and α10β1. Supernatant IgG concentration was sufficient for functional screening. […]

Molecule	Inhibition of col1a1 secretion [1]	Inhibition of CHO-hu α11-mediated collagen gel contraction [2]	Binding to α11β1 headpiece domain (SPR) (α11β1 Headpiece)	Binding to α11β1 I domain (SPR) (α11β1 I Domain [3])	Tumor growth inhibition compared to isotype control (A549 cell xenografts)	Binding to the I domain of α11β1 (α11β1 I Domain [4])	Cross-reactivity with other collagen receptors (α1β1, α2β1 and/or α10β1)
B1	significant inhibition of col1a1 secretion	inhibited	do not bind	do not bind	–	–	–
B2	–	inhibited	do not bind	do not bind	no significant inhibition of tumor growth	–	–
B3	–	–	–	–	–	not found to be an I-domain binder	does cross-react with other collagen receptors
B4	–	inhibited	–	do bind	significantly inhibited tumor growth	high and I-domain binder	–
